Laboratory results taken from patent publication US20260078398A1, “PLANTS GENETICALLY ENGINEERED FOR INCREASED WATER USE EFFICIENCY AND CARBON INTAKE AND METHODS FOR MAKING AND USING THEM” (The Regents of the University of California, priority 2022, published 2026).
Substitutions are numbered along the chain they refer to. Numbers in names are those of the source.

T1: His-HT1 (recombinant Arabidopsis HT1 protein kinase, wild type, with His tag)
T1 chain: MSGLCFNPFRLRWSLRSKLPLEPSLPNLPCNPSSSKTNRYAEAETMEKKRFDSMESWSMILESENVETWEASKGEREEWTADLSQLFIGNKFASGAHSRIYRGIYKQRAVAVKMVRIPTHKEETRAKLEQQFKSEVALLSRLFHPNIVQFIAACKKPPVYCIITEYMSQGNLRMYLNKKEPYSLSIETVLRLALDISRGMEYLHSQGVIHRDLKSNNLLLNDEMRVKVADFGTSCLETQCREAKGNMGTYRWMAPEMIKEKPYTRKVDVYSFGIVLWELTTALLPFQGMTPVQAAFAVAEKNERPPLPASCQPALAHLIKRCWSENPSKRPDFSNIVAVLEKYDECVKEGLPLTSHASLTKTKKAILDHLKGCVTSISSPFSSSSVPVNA

T2: HT1-G89R (Arabidopsis, UniProt Q2MHE4 1-390)
T2 construct: Recombinant HT1 isoform; No tag is stated for the variant; the wild type in the same pull-down was His-HT1; also called ht1-G89R isoform
T2 sequence: T1 chain with G89R

T3: HT1-R102K (Arabidopsis, UniProt Q2MHE4 1-390)
T3 construct: Recombinant HT1 isoform; No tag is stated for the variant
T3 sequence: T1 chain with R102K

T4: HT1-A109V (Arabidopsis, UniProt Q2MHE4 1-390)
T4 construct: Recombinant HT1 isoform; No tag is stated for the variant; also called ht1-A109V isoform
T4 sequence: T1 chain with A109V

T5: MPK12 (recombinant Arabidopsis MAP kinase MPK12)
T5 chain: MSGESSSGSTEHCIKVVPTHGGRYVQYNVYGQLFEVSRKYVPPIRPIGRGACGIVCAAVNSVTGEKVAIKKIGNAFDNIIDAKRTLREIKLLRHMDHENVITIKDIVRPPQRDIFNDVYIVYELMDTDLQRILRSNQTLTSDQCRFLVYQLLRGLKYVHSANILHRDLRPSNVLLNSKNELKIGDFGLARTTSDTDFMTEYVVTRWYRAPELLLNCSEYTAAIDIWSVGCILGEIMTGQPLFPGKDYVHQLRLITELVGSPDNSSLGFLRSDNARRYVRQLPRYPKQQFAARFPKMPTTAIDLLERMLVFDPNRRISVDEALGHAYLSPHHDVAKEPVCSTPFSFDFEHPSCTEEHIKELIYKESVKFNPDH

B1: GST-MPK4 (recombinant Arabidopsis MAP kinase MPK4 with GST tag) (enzyme)
chain: MSAESCFGSSGDQSSSKGVATHGGSYVQYNVYGNLFEVSRKYVPPLRPIGRGAYGIVCAATNSETGEEVAIKKIGNAFDNIIDAKRTLREIKLLKHMDHENVIAVKDIIKPPQRENFNDVYIVYELMDTDLHQIIRSNQPLTDDHCRFFLYQLLRGLKYVHSANVLHRDLKPSNLLLNANCDLKLGDFGLARTKSETDFMTEYVVTRWYRAPELLLNCSEYTAAIDIWSVGCILGETMTREPLFPGKDYVHQLRLITELIGSPDDSSLGFLRSDNARRYVRQLPQYPRQNFAARFPNMSAGAVDLLEKMLVFDPSRRITVDEALCHPYLAPLHDINEEPVCVRPFNFDFEQPTLTEENIKELIYRETVKFNPQDSV
notes: The tag is placed at the N-terminus only because of the printed name GST-MPK4; The phosphorylation assays say only 'MPK4' and name no tag; also called AtMPK4; AT4G01370; not shown: GST tag
B2: HT1-R102K (protein)
chain: T1 chain with R102K
B3: HT1-A109V (protein)
chain: T1 chain with A109V

Columns and labels:
[1] = molecular target: T1, His-HT1 (recombinant Arabidopsis HT1 …)
HT1-G89R = molecular target: T2, HT1-G89R; test: in vitro pull-down with or without NaHCO3 (FIG. 4E, n=3)
Method: FIG. 4E illustrates gel protein separation images showing data where in vitro pull-down assays were performed using recombinant HT1 (wild type, HT1-G89R and HT1-R173Q) proteins;
FIG. 4. Bicarbonate inactivates HT1 kinase by stabilizing HT1 interaction with MPK4/12. [0265] (A) Recombinant CBC1, HT1 and MPK4 proteins are incubated with or without 20 mM NaHCO₃ for 30 min, and in vitro phosphorylation assays were performed. [0266] (B) CBC1 and HT1 proteins were incubated with or without 20 mM NaHCO₃ or 20 mM NaCl (“−” controls) in the presence or absence of MPK12 protein. [0267] (C) His-HT1 and GST-MPK4 or GST control proteins were used for in vitro pull-down assays with or without 20 mM NaHCO₃. NaHCO₃ or 20 mM NaCl (“−” controls) were supplemented in all buffers throughout the pull-down assay procedures including the washing step. [0268] […] [0269] (E) In vitro pull-down assays were performed using recombinant HT1 (wild type, HT1-G89R and HT1-R173Q) proteins. [0270] (F) In vitro pull-down assays were performed using HT1-R102K isoform. [0271] (G) In vitro pull-down assays were performed using HT1-A109V isoform. [0272] […] [0273] (I) Stomatal conductances were analyzed in leaves of intact Arabidopsis plants [Col-0 (WT), mpk 12, pGC1:MPK12-GFP/mpk12 and pGC1:MPK12 (K70R)-GFP/mpk12]. CO₂ concentration changes were applied as indicated on top (p.p.m.). n=6 experiments, error bars show ±SEM. [0274] […]

HT1-R102K = molecular target: T3, HT1-R102K; test: in vitro pull-down with or without NaHCO3 (FIG. 4F, n=3)
HT1-A109V = molecular target: T4, HT1-A109V; test: in vitro pull-down with or without NaHCO3 (FIG. 4G, n=3)
[2] = molecular target: T5, MPK12 (recombinant Arabidopsis MAP …)
[3] = system: MPK4/12, HT1 and CBC1 recombinant proteins; test: in vitro phosphorylation assay: NaHCO3-dependent down-regulation of HT1-mediated CBC1 phosphorylation; format: biochemical, Arabidopsis; settings: isoform replaces wild type protein or is added; 20 mM NaHCO3 vs NaCl control, 30 min
Method: We tested whether this HT1-mediated activation of CBC1 is inhibited by CO2/bicarbonate by adding NaHCO3 in in vitro phosphorylation reactions. […]
FIG. 2. […] Histone was used as an artificial protein kinase substrate. • (B) MPK4, HT1 and CBC1 proteins were incubated with NaHCO3 at the indicated concentrations for 30 min, and in vitro phosphorylation assays were performed. • (C) CBC1 band intensities as shown in (B) were measured using IMAGEJ™, n=4 experiments, error bars show ±S.D. • (D) MPK4, HT1 and CBC1 proteins were incubated in reaction buffers adjusted at different pH (6.5 to 8.5) for 30 min, and in vitro phosphorylation assays were performed. • (E) CBC1 band intensities and the density-ratios of ‘+NaHCO3’ to ‘—NaHCO3’ (=+NaCl controls) for each pH condition
FIG. 3. […] Ambient CO2 concentrations are indicated by the top bars. n=7 experiments, error bars show ±SEM. • (C) Recombinant HT1 (wild type, HT1-G89R or HT1-R173Q) and CBC1 proteins were incubated with MPK4 in the presence or absence of 20 mM NaHCO3 or 20 mM NaCl (−controls) for 30 min, and in vitro phosphorylation assays were performed. • (D) Recombinant MPK12, CBC1 and HT1 (WT or R102K) proteins were incubated with or without 20 mM NaHCO3 or 20 mM NaCl (−controls) for 30 min, and in vitro phosphorylation assays were performed. Histone was used as an artificial kinase substrate. • (E) HT1 (WT or A109V) proteins were used for in vitro phosphorylation assays. Proteins were incubated with or without 20 mM NaHCO3 or 20 mM NaCl (−controls) for 30 min. • (F) Stomatal conductances were analyzed using intact plants of Arabidopsis (Col-0 (WT), cbc1 cbc2, ht1-A109V and cbc1 cbc2 ht1-A109V). CO2 concentration changes were applied as indicated on top (p.p.m.). […]

MPK4 and HT1 = test: in vitro pull-down assay, His-HT1 with GST-MPK4; format: binding, Arabidopsis; settings: pull-down with or without 20 mM NaHCO3
Method: We therefore investigated a possible binding between MPK4 and HT1 and the effect of HCO3^−.
FIG. 4. […] CO2 concentration changes were applied as indicated on top (p.p.m.). n=6 experiments, error bars show ±SEM. • (J) Model of plant stomatal CO2 sensor and signaling (see text).
FIG. 6. […] Precipitated proteins were washed with buffers supplemented with NaHCO3 at the indicated concentrations (0, 2 or 20 mM). See FIG. 4d for an independent experiment. To control for effects of Na^+, 20 mM NaCl (0 mM NaHCO3) for lanes 1 and 4 were included in the buffers; and 18 mM NaCl (2 mM NaHCO3) for lane 3 were included in buffer.

| Molecule | CBC1 and histone phosphorylation in vitro (HT1 + CBC1 + MPK4, 20 mM NaHCO3; FIG. 2A, n>6) [1] | binding result (HT1-G89R) | binding result (HT1-R102K) | binding result (HT1-A109V) | NaHCO3-triggered down-regulation of CBC1 phosphorylation and CBC1 activity, in vitro phosphorylation assay with MPK12 and CBC1 (FIG. 3D, n=3) [2] | NaHCO3-mediated down-regulation of CBC1 phosphorylation/activity with the protein isoform in the reaction [3] | HCO3- dependent binding of HT1 isoform with MPK4 (MPK4 and HT1) | NaHCO3-triggered down-regulation of CBC1 phosphorylation and CBC1 activity, in vitro phosphorylation assay with MPK4/12 and CBC1 (FIG. 3E, n=4) (MPK4/12) |
| --- | --- | --- | --- | --- | --- | --- | --- | --- |
| B1 | when MPK4 or MPK12 were added to the reaction, we found that the addition of NaHCO3, but not NaCl, inhibited both CBC1 phosphorylation and histone phosphorylation in vitro | no binding | no binding | no binding | – | – | – | – |
| B2 | – | – | – | – | both of these R102K and A109V mutations disrupt the NaHCO3-triggered down-regulation of CBC1 phosphorylation and CBC1 activity | disrupt the NaHCO3-triggered down-regulation of CBC1 phosphorylation and CBC1 activity | did not show a bicarbonate-induced interaction of HT1 with MPK4 | – |
| B3 | – | – | – | – | – | disrupt the NaHCO3-triggered down-regulation of CBC1 phosphorylation and CBC1 activity | did not show a bicarbonate-induced interaction of HT1 with MPK4 | both of these R102K and A109V mutations disrupt the NaHCO3-triggered down-regulation of CBC1 phosphorylation and CBC1 activity |
